Holding throughout (test): SPR (BIACORE), antibody captured, soluble FcgR as analyte, 25C
A general note: In SPR one partner is held on a chip, and binding of the other changes the refractive index at the surface.

Assay [1] addresses T1, human FcγRIIb extracellular domain, C-terminal His-tag (human, UniProt P31994 43-217).
T1 construct: also called FcgRIIb; not shown: His-tag added to the C-terminus
T1 sequence: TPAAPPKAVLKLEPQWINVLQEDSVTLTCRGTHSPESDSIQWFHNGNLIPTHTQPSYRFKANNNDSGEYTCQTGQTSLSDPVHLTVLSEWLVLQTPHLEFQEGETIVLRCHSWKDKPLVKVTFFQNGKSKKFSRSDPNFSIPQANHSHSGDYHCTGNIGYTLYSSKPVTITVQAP
How it is done: (§1) The kinetic analysis of interactions between these antibodies and FcγR was carried out using BIACORE® T200 or BIACORE® 4000 (GE Healthcare). HBS-EP+ (GE Healthcare) was used as the running buffer, and the measurement temperature was set to 25° C. A chip produced by immobilizing Protein A. Protein A/G or mouse anti-human IgG kappa light chain (BD Biosciences) onto a Series S Sensor Chip CM4 or CM5 (GE Healthcare) by the amine-coupling method was used. […] After the measurement, the antibody captured on the chip was washed off by allowing reaction with 10 mM glycine-HCl, pH1.5 and 25 mM NaOH so that the chip was regenerated and used repeatedly. The sensorgrams obtained as measurement results were analyzed by the 1:1 Langmuir binding model using the BIACORE® Evaluation Software to calculate the binding rate constant ka (L/mol/s) and dissociation rate constant kd (l/s), and the dissociation constant KD (mol/L) was calculated from these values. […] Regarding such interactions, KD values were calculated using the following 1:1 binding model described in BIACORE® T100 Software Handbook BR1006-48 Edition AE.
(§2) The behavior of interacting molecules according to the 1:1 binding model on BIACORE® can be described by Equation 1: Req=C·R max/(KD+C)+RI, wherein, Req is a plot of steady-state binding levels to analyte concentration. C is concentration, RI is bulk refractive index contribution in the sample, and Rmax is analyte binding capacity of the surface. When this equation is rearranged, KD can be expressed as Equation 2: KD=C·Rmax/(Req−RI)−C. KD can be calculated by substituting the values of Rmax, RI, and C into Equation 1 or Equation 2. From the current measurement conditions, RI=0, C=2 μmol/L can be used.

Assay [2] addresses T2, human FcγRIIaR extracellular domain, C-terminal His-tag (human, UniProt P12318 34-217).
T2 construct: also called human FcγRIIa (type R); FcgRIIaR; not shown: His-tag added to the C-terminus
T2 chain: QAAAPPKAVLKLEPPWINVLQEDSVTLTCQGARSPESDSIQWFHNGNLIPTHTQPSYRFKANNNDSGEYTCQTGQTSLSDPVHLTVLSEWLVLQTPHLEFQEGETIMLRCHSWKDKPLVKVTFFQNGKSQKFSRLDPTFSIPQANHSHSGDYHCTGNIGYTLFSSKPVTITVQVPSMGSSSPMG
The method, then: as §1, §2

Assay [3] concerns the target T3, human FcγRIIIaV extracellular domain, C-terminal His-tag (human, UniProt P08637 17-208).
T3 construct: also called FcgRIIIaV; not shown: His-tag added to the C-terminus
How it is done: as §1, §2

The target of assay [4] is T4, human FcγRIIaH extracellular domain, C-terminal His-tag (human, UniProt P12318 34-217).
T4 construct: also called human FcγRIIa (type H); FcgRIIaH; not shown: His-tag added to the C-terminus
T4 sequence: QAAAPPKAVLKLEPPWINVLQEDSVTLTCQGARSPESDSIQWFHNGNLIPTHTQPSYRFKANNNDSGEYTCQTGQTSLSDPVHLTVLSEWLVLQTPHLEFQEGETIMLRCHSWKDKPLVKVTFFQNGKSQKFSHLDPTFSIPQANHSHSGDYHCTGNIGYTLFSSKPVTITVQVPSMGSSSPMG
How it is done: as §1, §2

The target in assay [5] is T5, cynomolgus monkey FcγRIIa2 extracellular domain, C-terminal His-tag (cynomolgus monkey).
T5 construct: also called cyno FcγRIIa2; FcgRIIa2; not shown: His-tag added to the C-terminus
T5 chain: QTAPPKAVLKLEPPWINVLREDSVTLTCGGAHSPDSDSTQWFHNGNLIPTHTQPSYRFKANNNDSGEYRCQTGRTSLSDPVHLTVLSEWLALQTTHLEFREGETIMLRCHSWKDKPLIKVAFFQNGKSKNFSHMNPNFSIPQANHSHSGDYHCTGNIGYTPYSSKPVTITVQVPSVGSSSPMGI
How it is done:
as §1, §2

In assay [6] the target is T6, cynomolgus monkey FcγRIIa3 extracellular domain, C-terminal His-tag (cynomolgus monkey).
T6 construct: also called cyno FcγRIIa3; FcgRIIa3; not shown: His-tag added to the C-terminus
T6 chain: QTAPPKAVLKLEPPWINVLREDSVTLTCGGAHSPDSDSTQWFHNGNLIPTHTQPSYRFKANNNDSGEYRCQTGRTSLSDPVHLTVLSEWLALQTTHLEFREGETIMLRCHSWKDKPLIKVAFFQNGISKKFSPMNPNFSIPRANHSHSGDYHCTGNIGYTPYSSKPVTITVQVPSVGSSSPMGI
How it is done:
as §1, §2

Assay [7] has as its target T7, cynomolgus monkey FcγRIIa1 extracellular domain, C-terminal His-tag (cynomolgus monkey).
T7 construct: also called cyno FcγRIIa1; FcgRIIa1; not shown: His-tag added to the C-terminus
T7 chain: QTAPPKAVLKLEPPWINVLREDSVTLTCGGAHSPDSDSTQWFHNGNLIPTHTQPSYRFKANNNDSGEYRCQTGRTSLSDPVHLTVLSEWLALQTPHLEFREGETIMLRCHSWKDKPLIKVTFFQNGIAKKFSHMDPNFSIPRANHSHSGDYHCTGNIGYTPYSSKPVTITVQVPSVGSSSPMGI
How it is done: as §1, §2

Assay [8] deals with T8, cynomolgus monkey FcγRIIIaS extracellular domain, C-terminal His-tag (cynomolgus monkey, UniProt A3RFZ7 21-206 (rhesus entry)).
T8 construct: also called cyno FcγRIIIaS; FcgRIIIaS; not shown: His-tag added to the C-terminus
T8 sequence (A3RFZ7 21-206): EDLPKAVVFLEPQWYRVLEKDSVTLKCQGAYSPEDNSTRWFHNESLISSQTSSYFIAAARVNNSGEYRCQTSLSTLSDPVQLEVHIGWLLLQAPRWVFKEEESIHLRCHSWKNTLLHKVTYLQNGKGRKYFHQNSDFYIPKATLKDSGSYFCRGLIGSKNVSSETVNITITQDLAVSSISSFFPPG
The method, then: as §1, §2

In general, Kd refers to the free concentration of one partner at which half of the binding sites on the other are occupied at equilibrium, for simple one-to-one binding.

T3 sequence (P08637 17-208 F176V): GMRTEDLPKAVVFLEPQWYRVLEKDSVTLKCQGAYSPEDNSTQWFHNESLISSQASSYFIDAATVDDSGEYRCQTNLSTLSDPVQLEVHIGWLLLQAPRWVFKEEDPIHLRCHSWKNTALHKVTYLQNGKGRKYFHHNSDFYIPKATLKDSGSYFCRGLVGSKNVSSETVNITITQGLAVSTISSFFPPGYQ

B1: MS1032LO06-PK57 (M103205H795-PK57/M103202L889-SK1) (antibody, human IgG1, kappa)
heavy: QVTLKESGPVLVKPTETLTLTCTVSGIDLSHDDISWVRQAPGKGLEWVGIISYAGSTYYASWAKGRLTISKDTSKNQVVLTMTNMDPVDTATYYCARGVPAYSHGGDLWGQGTLVTVSSASTKGPSVFPLAPSSKSTSGGTAALGCLVKDYFPEPVTVSWNSGALTSGVHTFPAVLQSSGLYSLSSVVTVPSSSLGTQTYICNVNHKPSNTKVDKKVEPKSCDKTHTCPPCPAPELLNGPSVFLFPPKPKDTLMISRTPEVTCVVVDVSDEDPEVKFNWYVDGVEVHNAKTKPREEQYNSTYRVVSVLTVLHRDWLNGKEYKCKVSNKALPKPIEKTISKAKGQPREPQVYTLPPSREEMTKNQVSLTCLVKGFYPSDIAVEWESRGQPENNYKTTPPVLDSDGSFFLYSKLTVRKSRWQQGNVFSCSVMHEALHNHYTQKSLSLSP
light: DIVMTQSPATLSLSPGERATLSCTSSQSVYHANWLSWFQQKPGQPPKLLIYWASTLAYGVPSRFSGSGSGTDFTLTISSLQPEDAATYYCAGGYGGGRYAFGQGTKVEIKRTVAAPSVFIFPPSDEQLKSGTASVVCLLNNFYPREAKVQWKVDNALQSGNSQESVTEQDSKDSTYSLSSTLTLSKADYEKHKVYACEVTHQGLSSPVTKSFNRGEC
notes: CH PK57 = SG1 with G236N/H268D/Q311R/A330K/N384R/D413R (EU numbering); also called MS103205H795-PK57
For the molecule B1, the Kd in assay [1] was determined as 1.2 µM; in assay [2], 2.2 µM; in assay [3], 23 µM; in assay [4] it was 1.3 µM; in assay [5] it was 1.7 µM; in assay [6], 3.1 µM. The Kd in assay [7] was 1.9 µM; in assay [8], 4.3 µM.
